A word on the kon: it is the rate constant with which the complex forms. Read a low kon as slower complex formation.

These results are taken from article PMC7148561.

“And” between values parts separate entries of the source, which are not always exact repeats. Equal entries are not always repeated.

The target of assay [1] is hHsp70 (human Hsp70A1), variant not told for the experiment (human) (UniProt P0DMV8). Briefly: SEC.
Assay [2] deals with Cy3-labeled hHsp70 (E315C/I427C or I427C/K559C; variant not told for the printed rate). Briefly: FRET or BRET. A general note: Bioluminescence resonance energy transfer reports proximity on the nanometre scale.
For assay [3], the target named is hHsp70 NBD–SBDβ labeling variant E315C/I427C (human) (UniProt P0DMV8). Briefly: FRET or BRET.
Assay [4] has as its target the two labeling variants of hHsp70 containing the T204A mutation. The experiment in a line: FRET or BRET.
The target in assay [5] is the two labeling variants of hHsp70 in the ATP-bound state (direct binding of JGF). Briefly: FRET or BRET.

The substance “Hdj1, human type II Hsp40 homolog, full-length (from UniProt P25685 1-340) (natural protein)” gave a stoichiometry N (hHsp70 molecules per Hdj1 dimer) in assay [1] of 2. For the same substance, in assay [2], the apparent rate constant of the fast binding phase was found to be 1.2 s⁻¹. In assay [3], the kon is 350000 M⁻¹ s⁻¹. The rate constant of direct binding in assay [4] was 2.5 s⁻¹ and 1.5 s⁻¹.

“J+G/F-rich segment (JGF) of Hdj1, residues 1–141 (from UniProt P25685 1-141) (domain or fragment)”: the apparent rate constant of direct binding in assay [5] is 0.7 s⁻¹ and 1.6 s⁻¹.
